In doi:10.1101/2025.07.12.664526 (bioRxiv, 2025):
Numbering of substitutions follows the chain as printed. Names and notes keep the numbering of the source.

Tests used:
[1] = biological target: WalR T101M fused to SmBIT or LgBIT (split luciferase) (S. aureus ATCC29213) (UniProt Q7A8E1); test: split reporter
[2] = biological target: WalR, wild type, full-length, C-terminal 6xHis, phosphorylated by PknB^CYTO with ATP (S. aureus ATCC29213) (UniProt Q7A8E1); test: SEC-MALS
[3] = biological target: T1, WalR wild type fused to SmBIT or LgBIT (split luciferase) (S. aureus ATCC29213, UniProt Q7A8E1 1-233); test: split reporter
T1 sequence (looked up): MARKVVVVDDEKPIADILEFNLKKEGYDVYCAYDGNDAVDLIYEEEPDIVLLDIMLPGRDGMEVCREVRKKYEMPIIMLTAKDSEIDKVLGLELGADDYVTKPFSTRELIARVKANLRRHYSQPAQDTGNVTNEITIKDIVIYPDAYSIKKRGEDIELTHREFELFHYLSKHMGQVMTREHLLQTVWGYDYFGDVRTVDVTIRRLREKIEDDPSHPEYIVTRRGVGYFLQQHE

split reporter = biological target: the molecule itself; test: split reporter

Molecule “WalR T101M fused to SmBIT or LgBIT (split luciferase) (from UniProt Q7A8E1 1-233) (natural protein)” has a peak luciferase signal in the wild type background [1] of 4340 RLU, a peak luciferase signal in the ΔpknB background [1] of 3650 RLU and a percent decrease of peak luciferase signal area against wild type WalR/WalR [1] of 65.2%.

With “WalR, wild type, full-length, C-terminal 6xHis, phosphorylated by PknB^CYTO with ATP (from UniProt Q7A8E1 1-233) (natural protein)” the stoichiometry N [2] was 2.

B1: WalR T101M fused to SmBIT or LgBIT (split luciferase) (natural protein, S. aureus ATCC29213, UniProt Q7A8E1 1-233, looked up)
chain: T1 sequence (looked up) with T101M
With B1 the “percent decrease of peak area against wild type WalR/WalR” value [3] was 56.5%.

B2: WalR T101S fused to SmBIT or LgBIT (split luciferase) (natural protein, S. aureus ATCC29213, UniProt Q7A8E1 1-233, looked up)
chain: T1 sequence (looked up) with T101S
For B2, the “percent decrease of peak area against wild type WalR/WalR” value (split reporter) was 52.4%.

B3: WalR T101A fused to SmBIT or LgBIT (split luciferase) (natural protein, S. aureus ATCC29213, UniProt Q7A8E1 1-233, looked up)
chain: T1 sequence (looked up) with T101A
B3 was tested, and the “percent decrease of peak area against wild type WalR/WalR” value (split reporter) was 56.7%.
